Patent publication EP4818210A1
Each block holds one molecule with its values, some of them ahead of it.

How the values were obtained:
[1] = molecular target: Her2/ERBB2 Protein, Human, Recombinant (ECD, His Tag) (human) (UniProt P04626); assay: ELISA, control on human HER2 antigen
[2] = molecular target: Her2/ERBB2 Protein, Human, Recombinant (ECD, His Tag) (human) (UniProt P04626); assay: ELISA, E. coli lysate supernatant on human HER2 antigen

OD450 [1]: 0.073 OD450
Molecule: Irrelevant

OD450 [2]: 0.804 OD450
B1: M26H2-2002 (VHH)
VHH: QVQLVESGGGLVQPGGSLRLSCAASGFIFGNYPMNWYRQAPGKEREFVAVITRDGGVTRYAASVKGRFTITRDNAKNTVFLQMNSLKLEDTAVYYCHNPNYNAWGQGTQVTVAS

OD450 [2]: 1.03 OD450
B2: M26H2-3134 (VHH)
VHH: QVQLVESGGGMVQPGGSLRLSCAASGITFRHYTMSWYRQAPGKERELVASITYGGVTTNYADSVKGRFTLSRDDAKTTAYLQMTGLKPEDTAVYYCHADWTAAGLNHWGQGTQVTVSS
